“And” between values parts separate entries of the source, which are not always exact repeats. Equal values may be shown once.
Target: semi-synthetic pS129-α-synuclein (Proteos Inc.) (Homo sapiens (Human)) (UniProt P37840)
Test: sandwich ECLIA, freshly prepared pS129-α-syn standard at 100 ng/mL

Question: With “anti-pS129-α-syn monoclonal antibody EP1536Y” as the substance, how does the ECLIA signal at 100 ng/mL standard read?
Answer: The ECLIA signal at 100 ng/mL standard was 500000 and 1.1e+06.

— US20260219283A1
